Source: patent US20230303695A1 (SHANGHAI XBH BIOTECHNOLOGY, published 2023)

T1: IGSF8 protein without D1 domain (human, UniProt Q969P0 150-579, limits assumed)
T1 construct: domain: D2-4; also called D24; D2-4
T1 sequence (looked up): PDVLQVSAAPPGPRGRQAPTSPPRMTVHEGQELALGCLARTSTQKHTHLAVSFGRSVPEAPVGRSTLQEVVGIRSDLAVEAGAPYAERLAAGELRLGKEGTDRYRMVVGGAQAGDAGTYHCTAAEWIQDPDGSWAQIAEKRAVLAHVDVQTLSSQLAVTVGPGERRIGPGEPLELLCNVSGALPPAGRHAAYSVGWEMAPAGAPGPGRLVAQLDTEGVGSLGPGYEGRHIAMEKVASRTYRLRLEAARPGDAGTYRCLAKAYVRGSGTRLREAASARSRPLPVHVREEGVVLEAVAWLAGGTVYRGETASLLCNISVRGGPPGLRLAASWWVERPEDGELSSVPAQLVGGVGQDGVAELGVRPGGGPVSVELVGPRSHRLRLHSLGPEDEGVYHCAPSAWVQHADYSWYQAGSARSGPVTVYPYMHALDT

T2: human IGSF8 expressed on the cell surface (human, UniProt Q969P0 28-613)
T2 construct: whole, on cells; also called human IGSF8 on CT26 cells; IGSF8 on MC38 cells
T2 sequence (looked up): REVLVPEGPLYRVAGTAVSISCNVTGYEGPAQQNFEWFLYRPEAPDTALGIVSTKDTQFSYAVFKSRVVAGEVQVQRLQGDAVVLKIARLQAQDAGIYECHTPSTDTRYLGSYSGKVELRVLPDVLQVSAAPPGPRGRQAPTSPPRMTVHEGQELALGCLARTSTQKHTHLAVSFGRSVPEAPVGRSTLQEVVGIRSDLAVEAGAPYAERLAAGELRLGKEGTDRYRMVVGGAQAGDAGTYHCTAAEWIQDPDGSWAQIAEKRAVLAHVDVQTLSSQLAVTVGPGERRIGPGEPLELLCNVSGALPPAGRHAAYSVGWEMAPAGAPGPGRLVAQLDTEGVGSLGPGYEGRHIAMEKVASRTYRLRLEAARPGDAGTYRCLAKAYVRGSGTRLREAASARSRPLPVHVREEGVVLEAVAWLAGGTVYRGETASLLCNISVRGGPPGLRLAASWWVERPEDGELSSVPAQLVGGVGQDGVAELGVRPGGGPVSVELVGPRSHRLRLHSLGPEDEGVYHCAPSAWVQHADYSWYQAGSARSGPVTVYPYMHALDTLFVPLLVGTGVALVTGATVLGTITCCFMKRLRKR

T3: mouse IGSF8 expressed on CT26 cells (mouse, UniProt Q8R366 26-611)
T3 construct: whole, on cells
T3 sequence (looked up): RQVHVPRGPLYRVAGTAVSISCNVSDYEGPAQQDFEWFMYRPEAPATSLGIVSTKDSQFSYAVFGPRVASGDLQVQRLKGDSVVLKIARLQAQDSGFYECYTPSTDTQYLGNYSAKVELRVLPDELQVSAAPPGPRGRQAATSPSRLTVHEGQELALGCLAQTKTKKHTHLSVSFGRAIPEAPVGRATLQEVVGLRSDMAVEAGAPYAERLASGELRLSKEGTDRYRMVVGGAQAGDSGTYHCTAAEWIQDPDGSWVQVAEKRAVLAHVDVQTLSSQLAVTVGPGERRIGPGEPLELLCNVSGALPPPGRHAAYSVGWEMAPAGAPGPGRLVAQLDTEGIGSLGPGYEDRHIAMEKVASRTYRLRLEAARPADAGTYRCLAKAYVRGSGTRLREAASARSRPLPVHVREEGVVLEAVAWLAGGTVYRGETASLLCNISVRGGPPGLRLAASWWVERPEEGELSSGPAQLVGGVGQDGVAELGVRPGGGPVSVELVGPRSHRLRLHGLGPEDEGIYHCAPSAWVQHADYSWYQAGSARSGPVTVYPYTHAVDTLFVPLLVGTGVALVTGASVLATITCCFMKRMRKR

T4: full-length IGSF8 (recombinant antigen of the SPR screen; IGSF8 target antigen of the phage panning) (human, UniProt Q969P0 28-579, limits assumed)
T4 sequence (looked up): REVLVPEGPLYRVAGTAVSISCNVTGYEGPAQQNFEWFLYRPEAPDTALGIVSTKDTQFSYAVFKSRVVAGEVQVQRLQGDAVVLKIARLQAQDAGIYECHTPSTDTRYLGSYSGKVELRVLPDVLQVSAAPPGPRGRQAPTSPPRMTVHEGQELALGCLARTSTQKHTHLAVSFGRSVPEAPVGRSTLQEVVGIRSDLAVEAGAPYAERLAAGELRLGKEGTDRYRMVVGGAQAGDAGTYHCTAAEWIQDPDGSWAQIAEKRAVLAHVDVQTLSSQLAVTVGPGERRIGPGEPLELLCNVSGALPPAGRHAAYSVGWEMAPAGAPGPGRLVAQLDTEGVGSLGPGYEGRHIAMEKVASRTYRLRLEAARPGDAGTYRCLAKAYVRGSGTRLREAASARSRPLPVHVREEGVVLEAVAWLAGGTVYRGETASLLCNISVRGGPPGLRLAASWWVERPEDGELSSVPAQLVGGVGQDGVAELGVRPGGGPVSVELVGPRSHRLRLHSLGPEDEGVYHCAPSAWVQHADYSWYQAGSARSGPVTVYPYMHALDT

T5: D1 domain of IGSF8 (recombinant protein) (human, UniProt Q969P0 28-149, limits assumed)
T5 construct: domain: D1 (Ig V-set domain); also called Ig V-set domain of IGSF8
T5 sequence (looked up): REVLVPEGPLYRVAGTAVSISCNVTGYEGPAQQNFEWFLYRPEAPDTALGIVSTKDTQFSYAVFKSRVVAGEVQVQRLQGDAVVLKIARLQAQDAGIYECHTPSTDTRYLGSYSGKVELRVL

T6: recombinant human IGSF8 extracellular domain tagged by a human Fc region (IGSF8-hFc) (human, UniProt Q969P0 28-579, biotin label in Examples 17, 18 and 28 (site not given))
T6 construct: also called IGSF8-Fc fusion protein; IGSF8-hFc-biotin; not shown: human Fc region
T6 sequence: T4 sequence (looked up)

B1: Antibody C31 (B46) (antibody, V domains shown)
VH: QVQLVESGGGVVQPGRSLRLSCAASGFTFSTYGMHWVRQAPGKGLEWVAVIWDDGSYKYYGDSVKGRFTISRDNSKNTLYLQMNSLRAEDTAVYYCAGGYSYSYMAIWGKGTTVTVSS
VL: DIVLTQSPSSLSASVGDRVTITCRASQGISTFLNWYQQKPGKAPKLLIYAASSLQSGVPSRFSGSGSGTDFTLTIGSLQPEDFASYFCQQTYSTQWTFGQGTKVEIK
notes: also called mAb-B46 (C31)
B2: Antibody C36 (1B4) (antibody, V domains shown)
VH: EVQLLESGGGLVQPGGSLRLSCAASGFTFSSYAMSWVRQAPGKGLEWVSGITGSGGSTYYADSVKGRFTISRDNSKNTLYLQMNSLRAEDTAIYYCARGGALDIWGQGTMVTVSS
VL: DIQMTQSPSSLSASVGDRVTITCRASQVIHNYLAWYKQKPGQAPKLLIYSASSLQSGVPSRFSGSGSGTDFTLTISSLQPEDFATYYCQQSYSTPLTFGGGTKVEIKR
notes: also called mAb-1B4 (C36)
B3: KIR3DL1 expressed on CT26 cells (receptor, human, UniProt P43629 22-444, looked up)
chain: HMGGQDKPFLSAWPSAVVPRGGHVTLRCHYRHRFNNFMLYKEDRIHIPIFHGRIFQESFNMSPVTTAHAGNYTCRGSHPHSPTGWSAPSNPVVIMVTGNHRKPSLLAHPGPLVKSGERVILQCWSDIMFEHFFLHKEGISKDPSRLVGQIHDGVSKANFSIGPMMLALAGTYRCYGSVTHTPYQLSAPSDPLDIVVTGPYEKPSLSAQPGPKVQAGESVTLSCSSRSSYDMYHLSREGGAHERRLPAVRKVNRTFQADFPLGPATHGGTYRCFGSFRHSPYEWSDPSDPLLVSVTGNPSSSWPSPTEPSSKSGNPRHLHILIGTSVVIILFILLLFFLLHLWCSNKKNAAVMDQEPAGNRTANSEDSDEQDPEEVTYAQLDHCVFTQRKITRPSQRPKTPPTDTILYTELPNAKPRSKVVSCP
notes: whole, on cells; lentiviral vector containing a thy1.1 tag
B4: Antibody C33 (1C2) (antibody, V domains shown)
VH: QVQLVESGGGVVQPGRSLRLSCAASGFTFSTYGMHWVRQAPGKGLEWVAVIWDDGSYKYYGDSVKGRFTISRDNSKNTLYLQMNSLRAEDTAVYYCARDGSGWGYAFDIWGQGTMVTVSS
VL: DIQLTQSPSSLSASVGDRVTITCQASQDISEYLNWYQHKPGKAPNPLVFDAANLETGVPPRFSATGSGTDFSLTITSLQPEDFATYYCQQYDSFPYTFGQGTRLDIK
notes: also called mAb-1C2 (C33)
B5: Antibody C38 (2B4) (antibody, V domains shown)
VH: EVQLVESGGGLEQPGGSLRLSCAGSGFTFRDYAMTWVRQAPGKGLEWVSSISGSGGNTYYADSVKGRFTISRDNSKNTLYLQMNSLRAEDTAIYYCARGEYSSGWPSWFDPWGQGTLVTVSS
VL: EIVLTQSPSSLSASVGDRVTISCRASRTVGTFLNWYQQRPGKPPQALILGVSILEGGVSSRFSGAGSGTEFSLTISSLQPEDIGTYYCQQSHDVPRTFGQGTKVDLRR
notes: also called mAb-2B4 (C38)
B6: Antibody C32 (B104) (antibody, IgG1, V domains shown)
VH: QVQLVQSGAEVKRPGASVKVSCKASGYTFTNDIIHWVRQAPGQRLEWMGWINAGYGNTQYSQNFQDRVSITRDTSASTAYMELISLRSEDTAVYYCARGYYRSPTWFDWWGQGTLVTVSS
VL: ETTLTQSPSSLSASVGDRVTITCRASQSISSWLAWYQQKPGKAPKLLIYKASSLESGVPSRFSGSGSGTEFTLTISSLQPDDFATYYCQQYGDYPYTFGQGTKLEIKR
notes: also called mAb-B104 (C32)
B7: KLRC1/KLRD1 heterodimer expressed on CT26 cells (receptor)
chain 1: not shown
chain 2: MAVFKTTLWRLISGTLGIICLSLMSTLGILLKNSFTKLSIEPAFTPGPNIELQKDSDCCSCQEKWVGYRCNCYFISSEQKTWNESRHLCASQKSSLLQLQNTDELDFMSSSQQFYWIGLSYSEEHTAWLWENGSALSQYLFPSFETFNTKNCIAYNPNGNALDESCEDKNRYICKQQLI
notes: whole, on cells; cells co-transfected with both lentiviral constructs; also called KLRC1&D1 heterodimer; KLRC1/D1

Legend:
[1] = target: T1, IGSF8 protein without D1 domain; experiment: FACS, single antibody dose, IGSF8-D24 (D2-D4 with TM, no D1) expressed on CT26 cells
[2] = target: T2, human IGSF8 expressed on the cell …; experiment: FACS on CT26 cells with forced surface expression of human IGSF8
Protocol: For antibody binding assays based on cell-expressed antigens, 100,000 cells overexpressing the antigen (either the full-length IGSF8 or the D1 domain thereof) were washed with PBS buffer containing 2% FBS, and then incubated with 100 μL of antibodies or IgG of different concentrations for 30 minutes on ice. Cells were then washed twice with wash buffer, and incubated with 100 μL of 1:100 anti-human Fc-PE antibody for 15 minutes on ice. Cells were washed twice with wash buffer and analyzed on a FACS analyzer (CytoFlex, Beckman).

[3] = target: T3, mouse IGSF8 expressed on CT26 cells; experiment: FACS on CT26 cells
[4] = target: T4, full-length IGSF8 (recombinant antigen …); experiment: SPR, Biacore T100
[5] = target: T5, D1 domain of IGSF8 (recombinant protein); experiment: SPR, Biacore T100
[6] = target: T1, IGSF8 protein without D1 domain; experiment: FACS, hFc-tagged proteins on CT26 cells expressing the receptor, MFI normalized to Thy1.1
Protocol: (§1) KLRC1 also contains a ITIM motif in its intracellular domain, and was known to be a inhibitory receptor of NK or CD8⁺ T cells as part of a heterodimer with KLRD1 on the cell surface. […] Specifically, 100,000 CT26 cells overexpressing the antigens (KIRs or KLRs) were washed with PBS buffer containing 2% FBS, and incubated with 100 μL IGSF8 recombinant proteins or antibodies (5 μg/mL) for 30 minutes on ice. Cells were then washed twice with wash buffer, and incubated with 100 μL of 1:100 anti-human Fc-PE antibody for 15 minutes on ice. Cells were washed twice with wash buffer and analyzed on a FACS analyzer (CytoFlex, Beckman). In these experiments, the mean fluorescence intensity (MFI) of IGSF8 binding to different CT26 cells were normalized by the expression of different KLRs on CT26 cells using an anti-thy1.1 mAb via flow cytometry.

[7] = target: T6, recombinant human IGSF8 extracellular …; experiment: FACS, biotin-labelled IGSF8-hFc on CT26 cells expressing the KIR, MFI normalized to Thy1.1
Protocol: For this experiment, different human KIR receptors (KIR2DL1, KIR2DL2, KIR2DL3, KIR2DL4, KIR2DL5A, KIR2DL5B, KIR3DL1, KIR3DL2, KIR3DL3) were first cloned into a proprietary lentiviral vector containing a thy1.1 tag (FIG. 17A). Then mouse CT26 cells, were transducted by these lentiviral constructs, and IGSF8 binding was tested with biotin-labelled recombinant IGSF8 hFc fusion protein. The mean fluorescence intensity (MFI) of IGSF8 binding to different CT26 cells were normalized by the expression of different KIRs on CT26 cells using an anti-thy1.1 mAb (Biolegend) via flow cytometry.
as §1

Binder | binding result [1] | EC50 [2] [nM] | binding result [3] | Kd [4] [nM] | Kd [5] [nM] | binding result [6] | binding result [7]
B1 | no binding (tested: not shown on the sheet) | 2.08 | binds | 7.29 | < 50 |  | 
B2 |  | 2.02 | binds | 4.57 | < 50 |  | 
B3 |  |  |  |  |  | no binding | binds
B4 | no binding (tested: not shown on the sheet) | 6.2 |  | 33.2 | < 50 |  | 
B5 | no binding (tested: not shown on the sheet) | 4.64 |  | 3.83 | < 50 |  | 
B6 | no binding (tested: not shown on the sheet) | 5.42 | binds | 25.9 | < 50 |  | 
B7 |  |  |  |  |  | no binding | 
